Measurements taken from patent publication US11629364B2, “Methods for synthesizing anticoagulant polysaccharides” (OPTIMVIA, LLC, priority 2019, dated 2023).

How the values were obtained:
Assay type in all cases: biochemical
[1] = 3OST activity: 3-O sulfated products detected by LCMS after lyase digestion; details: for 3OST activity: N,2,3,6-HS products by MS and/or NMR: procedures of Example 5 and/or Example 6, expected
Method: A study was conducted in accordance with embodiments of the present disclosure to confirm 3OST activity of enzymes comprising the amino acid sequence of SEQ ID NO: 24, SEQ ID NO: 26, or SEQ ID NO: 28 by detecting the presence of 3-O sulfated polysaccharide products as a result of their sulfotransfer reaction, using a reaction, using a similar LCMS procedure as in Example 3, except that the sulfo acceptor polysaccharide was commercially-available heparin (CAS code: 9041-08-1, available from Millipore Sigma). Even though the unmodified heparin contains ˜3.5% (w/w) of 3-O sulfated glucosamine residues, about ˜60% of the glucosamine residues are N,6-sulfated and are adjacent to a 2-O sulfated hexuronic acid residue, as in Formula X. Consequently, these N,6-sulfated glucosamine residues can still be 3-O sulfated.

[2] = 3OST activity confirmed by 1H NMR; details: PNS as aryl sulfate compound
Method: Each enzyme was purified according to the procedure of Example 1. To each purified protein solution, 20 mg of an aryl sulfate compound (PNS or NCS) dissolved in 2 mL of reaction buffer (50 mM MES pH 7.0, 2 mM CaCl2)) was added to the protein solution and incubated at 37° C. for 10 min. 2.5 mL of 2 mg/mL solution of the commercial heparin polysaccharide utilized in Example 5 was added to protein/donor solution and incubated overnight at 37° C.
Each reaction was centrifuged at 5,000×g for 10 min, applied to a pre-wetted 30K MWCO Amicon-15 filter and centrifuged at 5,000×g for 10 min. The filter was washed once with 2 mL water, and centrifuged again. The filtrate was added to a 1K MWCO Dialysis membrane, dialyzed for 2 days in Milli-Q water, with water changes at 1 h, 2 h, 8 h, 16 h, 32 h, and then lyophilized. The dry, white powder was resuspended in 400 μL D20, lyophilized to remove exchangeable protons, then resuspended in 600 μL D2O and transferred to NMR tubes (Wilmad, 0.38 mm×7″). To determine if sulfotransfer took place, ^1H NMR spectra were obtained on a Bruker 600 MHz NMR, 32 scans, with water suppression. Within FIG. 30, the 3-O positions of any of the glucosamine residues can be sulfated by the 3OST enzyme. The sulfated 3-O position is circled in the central polysaccharide. […]

[3] = 2OST activity: 2-O sulfated products detected by LCMS after lyase digestion; details: procedures of Example 3; expected
Method: A study was conducted in accordance with embodiments of the present disclosure to confirm 2OST activity of enzymes comprising the amino acid sequence of SEQ ID NO: 14 or SEQ ID NO: 16 by detecting the presence of 2-O sulfated polysaccharide products formed as a result of their sulfotransfer reaction, using a similar procedure as in Example 2, except that the sulfo acceptor polysaccharide was commercial heparin in which the 2-O sulfate groups had been selectively removed by chemical means (product DSH001/2, available from Galen Laboratory Supplies) and analysis of each of the digested samples containing sulfated products was conducted using mass spectrometry, coupled with SAX-based high performance liquid chromatography (LCMS).
Disaccharides obtained by digesting the 2-O sulfated products using the carbon-oxygen lyases having the amino acid sequence of SEQ ID NO: 30, SEQ ID NO: 31, and SEQ ID NO: 32 and according to the procedure described above in Example 2 were quantified on a Shimadzu LCMS-8050 Triple Quadrupole Liquid Chromatograph Mass Spectrometer. 100 ng of each of the digested samples, diluted in 10 mM ammonium bicarbonate (pH 10). The disaccharides were separated on a Thermo Hypercarb HPLC column (100×2.1 mm, 5 μm). […]

Molecule | 2OST activity: N,2-HS products by MS [3] | 3OST activity: N,2,3,6-HS products by MS and/or NMR [1] | also measured
SEQ ID NO: 26: engineered aryl sulfate-dependent 3OST enzyme, mutant of isoform 1 of the human 3OST enzyme (protein, Amino acid sequence encoding for engineered arylsulfate-dependent 3-O-sulfotransferase variant 2, engineered aryl sulfate-dependent 3OST enzyme, mutant of isoform 1 of the human 3OST enzyme) MGTASNGSTQQLPQTIIIGVGHGGTRALLEMLSLHPDVAAAENEVHFFDWEEHYSQGLGWYLTQMPFSSPHQLTVEKTHSYFTSPKVPERIHSMNPTIRLLLILRDPSERVLSAYTHMLYNHLQKHKPYPPIEDLLMRDGRLNLDYTGLNRSLYHAHMLNWLRFFPLGHIHIVDGDRLIRDPFPEIQKVERFLKLSPQINASNFYFNKTKGFYCLRDSGKDRCLHESKGRAHPQVDPKLLDKLHEYFHEPNKKFFKLVGRTFDWH | – | – | 3OST sulfotransferase activity with NCS ([1]; NCS as aryl sulfate compound): active as a sulfotransferase; abundance of 3-O sulfation in product ([1]; relative to the commercial heparin standard): higher abundance of 3-O sulfation; 3OST sulfotransferase activity with PNS (NMR) [2]: 3-O sulfotransferase activity
SEQ ID NO: 56: full-length mutant of isoform 5 of the mouse 3OST enzyme, SEQ ID NO: 24 mutations (protein, Amino acid sequence encoding for engineered arylsulfate-dependent 3-O-sulfotransferase variant 8) MLFKQQVWLRQKLLVLGSLAVGSLLYLVARVGSLDRLQPICPVESRFGGAHNQAELPLRALQFKRGLLHEFRKGNSSKEQVHLHDLVQQLPKAIIIGVGHGGTRALLEMLNLHPAVVKASQEIHFFDNDENYAKGIEWYRKKMPFSYPQQITIEKSHSYFITEEVPERIYKMNSSIKLLIIVREPTTRAISAYTHMLEGKERKNKTYYKFEKLAIDPNTCEVNTKYVGVRTSIYTKHLERWLKYFPIEQFHIVDGDRLITEPLPELQLVEKFLNLPPRISQYNLYFNATRGFYCLRFNIIFNKCLAGSKGRIHPEVDPSVITKLRKFFHPFNQKFYQITGRTLNWP | – | confirm the presence of N,2,3,6-HS products | –
SEQ ID NO: 57: full-length mutant of isoform 5 of the mouse 3OST enzyme, SEQ ID NO: 26 mutations (protein, Amino acid sequence encoding for engineered arylsulfate-dependent 3-O-sulfotransferase variant 9) MLFKQQVWLRQKLLVLGSLAVGSLLYLVARVGSLDRLQPICPVESRFGGAHNQAELPLRALQFKRGLLHEFRKGNSSKEQVHLHDLVQQLPKAIIIGVGHGGTRALLEMLNLHPAVVKASQEIHFFDNDENYAKGIEWYRKKMPFSYPQQITIEKSHSYFITEEVPERIYKMNSSIKLLIIVREPTTRAISAYTHMLEGKERKNKTYYKFEKLAIDPNTCEVNTKYTGVRTSIYTKHLERWLKYFPIEQFHIVDGDRLITEPLPELQLVEKFLNLPPRISQYNLYFNATRGFYCLRFNIIFNKCLAGSKGRIHPEVDPSVITKLRKFFHPFNQKFYQITGRTLNWP | – | confirm the presence of N,2,3,6-HS products | –
SEQ ID NO: 58: full-length mutant of isoform 5 of the mouse 3OST enzyme, SEQ ID NO: 28 mutations (protein, Amino acid sequence encoding for engineered arylsulfate-dependent 3-O-sulfotransferase variant 10) MLFKQQVWLRQKLLVLGSLAVGSLLYLVARVGSLDRLQPICPVESRFGGAHNQAELPLRALQFKRGLLHEFRKGNSSKEQVHLHDLVQQLPKAIIIGVGHGGTRALLEMLNLHPAVVKASQEIHFFDNDENYAKGIEWYRKKMPFSYPQQITIEKSHSYFITEEVPERIYKMNSSIKLLIIVREPTTRAISLGTHLLEVKERKNKTYYKFEKLAIDPNTCEVNTKYTGVRTSIYTKHLERWLKYFPIEQFHIVDGDRLITEPLPELQLVEKFLNLPPRISQYNLYFNATRGFYCLRFNIIFNKCLAGSKGRIHPEVDPSVITKLRKFFHPFNQKFYQITGRTLNWP | – | confirm the presence of N,2,3,6-HS products | –

Now from value to molecule, other results behind:

2OST activity: N,2-HS products by MS [3] | Molecule | 3OST activity: N,2,3,6-HS products by MS and/or NMR [1] | also measured
confirm the presence of N,2-HS products | SEQ ID NO: 41: mutant of the human 2OST enzyme carrying the SEQ ID NO: 14 mutations (protein, Amino acid sequence encoding for engineered arylsulfate-dependent 2-O-sulfotransferase variant 3) MDEEEDMVIIYNRVPHTASTSFTNIAYDLCAKNKYHVLHINTTKNNPVMSLQDQVRFVKNITSWKEMKPGFYHGHVSYLDFAKFGVKKKPIYINVIRDPIERLVSYYYHLRFGDDYRPGLRRRKQGDKKTFDECVAEGGSDCAPEKLWLQIPFFCGHSSECWNVGSRWAMDQAKYNLINEYFLVGVTEELEDFIMLLEAALPRFFRGATELYRTGKKSHLHKTTEKKLPTKQTIAKLQQSDIWKMENEFYEFALEQFQFIRAHAVREKDGDLYILAQNFFYEKIYPKSN | – | –
confirm the presence of N,2-HS products | SEQ ID NO: 42: mutant of the human 2OST enzyme carrying the SEQ ID NO: 16 mutations (protein, Amino acid sequence encoding for engineered arylsulfate-dependent 2-O-sulfotransferase variant 4) MDEEEDMVIIYNRVHRTASHSFTNIAYDLCAKNKYHVLHINTTKGNPVMSLQDQVRFVKNITSWKEMKPGFYHGPVSYLDFAKFGVKKKPIYINVIRDPIERLVSYYYFLRFGSDKRPGLRMRKQGDKKTFDECVAEGGSDCAPEKLWLQIPFFCGHSSECWNVGSRWAMDQAKYNLINEYFLVGVTEELEDFIMLLEAALPRFFRGATELYRTGKKSHLHKTTEKKLPTKQTIAKLQQSDIWKMENEFYEFALEQFQFIRAHAVREKDGDLYILAQNFFYEKIYPKSN | – | –
